The record followed here is paper PMC5373496 (Science (New York, N.Y.), 2016).

The target in assay [1] is T1, Cdc37 tagged at its N terminus with T4 lysozyme (human, UniProt Q16543 1-378).
T1 sequence (looked up): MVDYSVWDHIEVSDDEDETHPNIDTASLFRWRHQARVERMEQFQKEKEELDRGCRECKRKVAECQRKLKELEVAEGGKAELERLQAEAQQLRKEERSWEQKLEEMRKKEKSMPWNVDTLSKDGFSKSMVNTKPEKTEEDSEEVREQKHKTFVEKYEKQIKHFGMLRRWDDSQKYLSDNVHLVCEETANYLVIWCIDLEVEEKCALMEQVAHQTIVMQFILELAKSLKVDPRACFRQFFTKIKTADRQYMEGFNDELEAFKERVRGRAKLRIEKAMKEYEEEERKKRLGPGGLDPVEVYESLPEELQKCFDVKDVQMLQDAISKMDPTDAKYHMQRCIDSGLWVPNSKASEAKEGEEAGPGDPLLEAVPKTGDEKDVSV
The assay can be described thus: cryo-EM structure.

Assay [2] deals with T2, Cdc37 of the yeast complex with T4 lysozyme-tagged Cdk4 (human, UniProt Q16543 1-378).
T2 sequence (looked up): T1 sequence (looked up)
The assay can be described thus: cryo-EM structure.

B1: Cdk4 of the yeast complex with T4 lysozyme-tagged Cdc37 (natural protein, human, UniProt P11802 1-303, looked up)
chain: MATSRYEPVAEIGVGAYGTVYKARDPHSGHFVALKSVRVPNGGGGGGGLPISTVREVALLRRLEAFEHPNVVRLMDVCATSRTDREIKVTLVFEHVDQDLRTYLDKAPPPGLPAETIKDLMRQFLRGLDFLHANCIVHRDLKPENILVTSGGTVKLADFGLARIYSYQMALTPVVVTLWYRAPEVLLQSTYATPVDMWSVGCIFAEMFRRKPLFCGNSEADQLGKIFDLIGLPPEDDWPRDVSLPRGAFPPRGPRPVQSVVPEMEESGAQLLLEMLTFNPHKRISAFRALQHSYLHKDEGNPE
For the molecule B1, the binding result in assay [1] was “binds”.

B2: Cdk4 tagged at its C terminus with T4 lysozyme (natural protein, human, UniProt P11802 1-303, looked up)
chain: B1 chain
With B2, the binding result in assay [2] is given as “binds”.
